Reference: patent publication US20250002588A1 (DIAGONAL THERAPEUTICS, published 2025)

These binders were tested against ALK-1/BMPR-2 receptor pair of the PathHunter U2Os dimerization cells (DiscoverX 93-0962C3) (UniProt P37023 22-503; Q13873 27-1038) (assay: cell-based or functional assay).
Sequence of ALK-1/BMPR-2 receptor pair of the PathHunter U2Os dimerization cells (DiscoverX 93-0962C3) (P37023 22-503, chain 1 of 2): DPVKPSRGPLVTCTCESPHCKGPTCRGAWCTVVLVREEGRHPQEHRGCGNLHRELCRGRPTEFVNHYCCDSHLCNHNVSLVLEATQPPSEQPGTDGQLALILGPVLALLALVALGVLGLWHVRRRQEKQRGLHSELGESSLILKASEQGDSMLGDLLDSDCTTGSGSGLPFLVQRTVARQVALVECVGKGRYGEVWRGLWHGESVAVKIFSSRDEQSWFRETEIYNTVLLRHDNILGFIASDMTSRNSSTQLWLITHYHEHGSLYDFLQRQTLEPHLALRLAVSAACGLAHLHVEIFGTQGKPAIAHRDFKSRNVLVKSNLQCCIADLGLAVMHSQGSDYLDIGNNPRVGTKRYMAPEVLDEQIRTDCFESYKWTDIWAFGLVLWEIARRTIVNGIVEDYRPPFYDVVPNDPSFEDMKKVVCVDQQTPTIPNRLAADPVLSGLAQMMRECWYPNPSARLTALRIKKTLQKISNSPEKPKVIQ
Sequence of ALK-1/BMPR-2 receptor pair of the PathHunter U2Os dimerization cells (DiscoverX 93-0962C3) (Q13873 27-1038, chain 2 of 2): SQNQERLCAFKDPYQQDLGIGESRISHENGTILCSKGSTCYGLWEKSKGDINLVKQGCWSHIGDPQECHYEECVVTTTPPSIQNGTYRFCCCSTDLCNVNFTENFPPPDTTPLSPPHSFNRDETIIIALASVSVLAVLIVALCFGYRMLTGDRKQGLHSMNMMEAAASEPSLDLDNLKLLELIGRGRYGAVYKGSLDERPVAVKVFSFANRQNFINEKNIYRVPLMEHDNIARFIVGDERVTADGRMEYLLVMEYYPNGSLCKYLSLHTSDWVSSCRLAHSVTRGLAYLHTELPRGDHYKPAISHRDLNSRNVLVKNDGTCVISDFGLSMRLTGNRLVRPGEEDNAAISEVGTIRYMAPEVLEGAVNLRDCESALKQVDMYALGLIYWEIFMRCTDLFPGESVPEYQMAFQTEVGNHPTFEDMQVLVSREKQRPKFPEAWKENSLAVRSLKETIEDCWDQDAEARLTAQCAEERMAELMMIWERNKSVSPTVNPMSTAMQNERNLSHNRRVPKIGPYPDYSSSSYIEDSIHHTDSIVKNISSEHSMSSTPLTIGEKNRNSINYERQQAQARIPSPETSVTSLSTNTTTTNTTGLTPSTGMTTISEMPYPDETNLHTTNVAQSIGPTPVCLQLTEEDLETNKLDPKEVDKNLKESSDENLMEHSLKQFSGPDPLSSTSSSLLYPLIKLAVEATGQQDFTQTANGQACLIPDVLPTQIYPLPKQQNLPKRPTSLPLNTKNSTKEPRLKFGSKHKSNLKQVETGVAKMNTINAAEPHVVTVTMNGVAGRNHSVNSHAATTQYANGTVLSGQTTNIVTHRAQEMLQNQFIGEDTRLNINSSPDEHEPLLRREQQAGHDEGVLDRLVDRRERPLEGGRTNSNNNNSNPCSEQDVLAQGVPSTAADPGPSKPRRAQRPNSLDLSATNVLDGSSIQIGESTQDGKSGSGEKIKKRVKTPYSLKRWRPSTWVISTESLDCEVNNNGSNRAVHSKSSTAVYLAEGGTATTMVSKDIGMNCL

Binder	% Emax BMP9	EC50	Emax (RLU)
DGL268 (bispecific antibody) chain 1: EVQLLESGGGLVQPGGSLRLSCAASGFTFSIYAMSWVRQAPGKGLEWVSAISGSGGSTYYADSVKGRFTISRDNSKNTLYLQMNSLRAEDTAVYYCARDFDYWGQGTLVTVTSSGGGGSGGGGSGGGGSQSVLTQPPSASGTPGQRVTISCSGSSSNIGSNYVYWYQQLPGTAPKLLIYGNINRPSGVPDRFSGSKSGTSASLAISGLRSEDEADYYCAAWDDSLNGRVFGGGTKLTVLGGGGSGGGGSGGGGSGVECPPCPAPPVAGPSVFLFPPKPKDTLMISRTPEVTCVVVDVSHEDPEVQFNWYVDGVEVHNAKTKPREEQFNSTFRVVSVLTVVHQDWLNGKEYKCKVSNKGLPAPIEKTISKTKGQPREPQVYTLPPCREEMTKNQVSLWCLVKGFYPSDIAVEWESNGQPENNYKTTPPMLDSDGSFFLYSKLTVDKSRWQQGNVFSCSVMHEALHNHYTQKSLSLSPG chain 2: EVQLLESGGGLVQPGGSLRLSCAASGFTFSIYAMSWVRQAPGKGLEWVSAISGSGGSTYYADSVKGRFTISRDNSKNTLYLQMNSLRAEDTAVYYCARDFDYWGQGTLVTVTSSGGGGSGGGGSGGGGSQSVLTQPPSASGTPGQRVTISCSGSSSNIGSNYVYWYQQLPGTAPKLLIYGNINRPSGVPDRFSGSKSGTSASLAISGLRSEDEADYYCAAWDDSLNGRVFGGGTKLTVLGGGGSGGGGSGGGGSGVECPPCPAPPVAGPSVFLFPPKPKDTLMISRTPEVTCVVVDVSHEDPEVQFNWYVDGVEVHNAKTKPREEQFNSTFRVVSVLTVVHQDWLNGKEYKCKVSNKGLPAPIEKTISKTKGQPREPQVCTLPPSREEMTKNQVSLSCAVKGFYPSDIAVEWESNGQPENNYKTTPPMLDSDGSFFLVSKLTVDKSRWQQGNVFSCSVMHEALHNHYTQKSLSLSPG	1%	0.1 nM	35200 RLU
DGL270 (bispecific antibody) chain 1: EVQLLESGGGLVQPGGSLRLSCAASGFTFSSYAMSWVRQAPGKGLEWVANINQDGSEKNYVDSMRGRFTISRDNSKNTLYLQMNSLRAEDTAVYYCAREFDYWGQGTLVTVTSSGGGGSGGGGSGGGGSQSVLAQPPSASGTPGQRVTISCSGSSSNIGSNYVYWYQQLPGTAPKLLIYGNNKRPSGVPDRFSGSKSGTSASLAISGLRSEDEADYYCAAWDDSLNGRVFGGGTKLTVLGGGGSGGGGSGGGGSGVECPPCPAPPVAGPSVFLFPPKPKDTLMISRTPEVTCVVVDVSHEDPEVQFNWYVDGVEVHNAKTKPREEQFNSTFRVVSVLTVVHQDWLNGKEYKCKVSNKGLPAPIEKTISKTKGQPREPQVYTLPPCREEMTKNQVSLWCLVKGFYPSDIAVEWESNGQPENNYKTTPPMLDSDGSFFLYSKLTVDKSRWQQGNVFSCSVMHEALHNHYTQKSLSLSPG chain 2: EVQLLESGGGLVQPGGSLRLSCAASGFTFSSYAMSWVRQAPGKGLEWVANINQDGSEKNYVDSMRGRFTISRDNSKNTLYLQMNSLRAEDTAVYYCAREFDYWGQGTLVTVTSSGGGGSGGGGSGGGGSQSVLAQPPSASGTPGQRVTISCSGSSSNIGSNYVYWYQQLPGTAPKLLIYGNNKRPSGVPDRFSGSKSGTSASLAISGLRSEDEADYYCAAWDDSLNGRVFGGGTKLTVLGGGGSGGGGSGGGGSGVECPPCPAPPVAGPSVFLFPPKPKDTLMISRTPEVTCVVVDVSHEDPEVQFNWYVDGVEVHNAKTKPREEQFNSTFRVVSVLTVVHQDWLNGKEYKCKVSNKGLPAPIEKTISKTKGQPREPQVCTLPPSREEMTKNQVSLSCAVKGFYPSDIAVEWESNGQPENNYKTTPPMLDSDGSFFLVSKLTVDKSRWQQGNVFSCSVMHEALHNHYTQKSLSLSPG	0%		9200 RLU

Second part, the binder after the results:

% Emax BMP9	EC50	Emax (RLU)	Binder
46%	0.9 nM	1.23e+06 RLU	DGL267 (bispecific antibody) chain 1: EVQLLESGGGLVQPGGSLRLSCAASGFTFSSYAMSWVRQAPGKGLEWVANINQDGSEKNYVDSMRGRFTISRDNSKNTLYLQMNSLRAEDTAVYYCAREFDYWGQGTLVTVTSSGGGGSGGGGSGGGGSQSVLAQPPSASGTPGQRVTISCSGSSSNIGSNYVYWYQQLPGTAPKLLIYGNNKRPSGVPDRFSGSKSGTSASLAISGLRSEDEADYYCAAWDDSLNGRVFGGGTKLTVLGGGGSGGGGSGGGGSGVECPPCPAPPVAGPSVFLFPPKPKDTLMISRTPEVTCVVVDVSHEDPEVQFNWYVDGVEVHNAKTKPREEQFNSTFRVVSVLTVVHQDWLNGKEYKCKVSNKGLPAPIEKTISKTKGQPREPQVYTLPPCREEMTKNQVSLWCLVKGFYPSDIAVEWESNGQPENNYKTTPPMLDSDGSFFLYSKLTVDKSRWQQGNVFSCSVMHEALHNHYTQKSLSLSPG chain 2: EVQLLESGGGLVQPGGSLRLSCAASGFTFSDYYMTWIRQAPGKGLEWVSSISGGSTYYADSRKGRFTISRDNSENTLYLQMNSLRAEDTAVYYCARDFGVAGWFGQYGMDVWGQGTLVTVSSGGGGSGGGGSGGGGSQSVLTQPPSASGTPGQRVTISCTGSSSNIGAGYDVHWYQQLPGTAPKLLIYRSNQRPSGVPDRFSGSKSGTSASLAISGLRSEDEADYYCSSYAGNYNLVFGGGTKLTVLGGGGSGGGGSGGGGSGVECPPCPAPPVAGPSVFLFPPKPKDTLMISRTPEVTCVVVDVSHEDPEVQFNWYVDGVEVHNAKTKPREEQFNSTFRVVSVLTVVHQDWLNGKEYKCKVSNKGLPAPIEKTISKTKGQPREPQVCTLPPSREEMTKNQVSLSCAVKGFYPSDIAVEWESNGQPENNYKTTPPMLDSDGSFFLVSKLTVDKSRWQQGNVFSCSVMHEALHNHYTQKSLSLSPG
2%		55900 RLU	DGL271 (bispecific antibody) chain 1: EVQLLESGGGLVQPGGSLRLSCAASGFTFSDYYMTWIRQAPGKGLEWVSSISGGSTYYADSRKGRFTISRDNSENTLYLQMNSLRAEDTAVYYCARDFGVAGWFGQYGMDVWGQGTLVTVSSGGGGSGGGGSGGGGSQSVLTQPPSASGTPGQRVTISCTGSSSNIGAGYDVHWYQQLPGTAPKLLIYRSNQRPSGVPDRFSGSKSGTSASLAISGLRSEDEADYYCSSYAGNYNLVFGGGTKLTVLGGGGSGGGGSGGGGSGVECPPCPAPPVAGPSVFLFPPKPKDTLMISRTPEVTCVVVDVSHEDPEVQFNWYVDGVEVHNAKTKPREEQFNSTFRVVSVLTVVHQDWLNGKEYKCKVSNKGLPAPIEKTISKTKGQPREPQVYTLPPCREEMTKNQVSLWCLVKGFYPSDIAVEWESNGQPENNYKTTPPMLDSDGSFFLYSKLTVDKSRWQQGNVFSCSVMHEALHNHYTQKSLSLSPG chain 2: EVQLLESGGGLVQPGGSLRLSCAASGFTFSDYYMTWIRQAPGKGLEWVSSISGGSTYYADSRKGRFTISRDNSENTLYLQMNSLRAEDTAVYYCARDFGVAGWFGQYGMDVWGQGTLVTVSSGGGGSGGGGSGGGGSQSVLTQPPSASGTPGQRVTISCTGSSSNIGAGYDVHWYQQLPGTAPKLLIYRSNQRPSGVPDRFSGSKSGTSASLAISGLRSEDEADYYCSSYAGNYNLVFGGGTKLTVLGGGGSGGGGSGGGGSGVECPPCPAPPVAGPSVFLFPPKPKDTLMISRTPEVTCVVVDVSHEDPEVQFNWYVDGVEVHNAKTKPREEQFNSTFRVVSVLTVVHQDWLNGKEYKCKVSNKGLPAPIEKTISKTKGQPREPQVCTLPPSREEMTKNQVSLSCAVKGFYPSDIAVEWESNGQPENNYKTTPPMLDSDGSFFLVSKLTVDKSRWQQGNVFSCSVMHEALHNHYTQKSLSLSPG
46%	4.2 nM	1.22e+06 RLU	DGL273 (bispecific antibody) chain 1: EVQLLESGGGLVQPGGSLRLSCAASGFTFSIYAMSWVRQAPGKGLEWVSAISGSGGSTYYADSVKGRFTISRDNSKNTLYLQMNSLRAEDTAVYYCARDFDYWGQGTLVTVTSSGGGGSGGGGSGGGGSQSVLTQPPSASGTPGQRVTISCSGSSSNIGSNYVYWYQQLPGTAPKLLIYGNINRPSGVPDRFSGSKSGTSASLAISGLRSEDEADYYCAAWDDSLNGRVFGGGTKLTVLCPPCPAPEAAGAPSVFLFPPKPKDTLMISRTPEVTCVVVDVSHEDPEVKFNWYVDGVEVHNAKTKPREEQYNSTYRVVSVLTVLHQDWLNGKEYKCKVSNKALPAPIEKTISKAKGQPREPQVYTLPPCRDELTKNQVSLWCLVKGFYPSDIAVEWESNGQPENNYKTTPPVLDSDGSFFLYSKLTVDKSRWQQGNVFSCSVMHEALHNHYTQKSLSLSPGEPEA chain 2: EVQLLESGGGLVQPGGSLRLSCAASGFTFSNAWMNWVRQAPGKGLEWVSSISSSSSYIYYADSVKGRFTISRDNSKNTLYLQMNSLRAEDTAVYYCARAVAAGGMFWGLDQWGQGTLVTVTSSGGGGSGGGGSGGGGSQSVLTQPPSASGTPGQRVTISCSGSRSNIGSNSVHWYQQLPGTAPKLLIYGNSNRPSGVPDRFSGSKSGTSASLAISGLRSEDEADYYCQSYDSSLNDHVVFGGGTKLTVLCPPCPAPEAAGAPSVFLFPPKPKDTLMISRTPEVTCVVVDVSHEDPEVKFNWYVDGVEVHNAKTKPREEQYNSTYRVVSVLTVLHQDWLNGKEYKCKVSNKALPAPIEKTISKAKGQPREPQVCTLPPSRDELTKNQVSLSCAVKGFYPSDIAVEWESNGQPENNYKTTPPVLDSDGSFFLVSKLTVDKSRWQQGNVFSCSVMHEALHNHYTQKSLSLSPGWSHPQFEK
0%		-8300 RLU	DGL269 (bispecific antibody) chain 1: EVQLLESGGGLVQPGGSLRLSCAASGFTFSNAWMNWVRQAPGKGLEWVSSISSSSSYIYYADSVKGRFTISRDNSKNTLYLQMNSLRAEDTAVYYCARAVAAGGMFWGLDQWGQGTLVTVTSSGGGGSGGGGSGGGGSQSVLTQPPSASGTPGQRVTISCSGSRSNIGSNSVHWYQQLPGTAPKLLIYGNSNRPSGVPDRFSGSKSGTSASLAISGLRSEDEADYYCQSYDSSLNDHVVFGGGTKLTVLGGGGSGGGGSGGGGSGVECPPCPAPPVAGPSVFLFPPKPKDTLMISRTPEVTCVVVDVSHEDPEVQFNWYVDGVEVHNAKTKPREEQFNSTFRVVSVLTVVHQDWLNGKEYKCKVSNKGLPAPIEKTISKTKGQPREPQVYTLPPCREEMTKNQVSLWCLVKGFYPSDIAVEWESNGQPENNYKTTPPMLDSDGSFFLYSKLTVDKSRWQQGNVFSCSVMHEALHNHYTQKSLSLSPG chain 2: EVQLLESGGGLVQPGGSLRLSCAASGFTFSNAWMNWVRQAPGKGLEWVSSISSSSSYIYYADSVKGRFTISRDNSKNTLYLQMNSLRAEDTAVYYCARAVAAGGMFWGLDQWGQGTLVTVTSSGGGGSGGGGSGGGGSQSVLTQPPSASGTPGQRVTISCSGSRSNIGSNSVHWYQQLPGTAPKLLIYGNSNRPSGVPDRFSGSKSGTSASLAISGLRSEDEADYYCQSYDSSLNDHVVFGGGTKLTVLGGGGSGGGGSGGGGSGVECPPCPAPPVAGPSVFLFPPKPKDTLMISRTPEVTCVVVDVSHEDPEVQFNWYVDGVEVHNAKTKPREEQFNSTFRVVSVLTVVHQDWLNGKEYKCKVSNKGLPAPIEKTISKTKGQPREPQVCTLPPSREEMTKNQVSLSCAVKGFYPSDIAVEWESNGQPENNYKTTPPMLDSDGSFFLVSKLTVDKSRWQQGNVFSCSVMHEALHNHYTQKSLSLSPG
